How the values were obtained:
[1] = target: MUTYH D271G (c.728A > G) (human (endogenous in HEK293T))
[2] = target: MUTYH W131* (c.309G > A) (human (endogenous in HEK293T))
[3] = target: MUTYH D271G (c.728A > G) (human (endogenous in HEK293T)); assay: co-IP; MUTYH immunoprecipitated with MUTYH (C-6) antibody on Protein G Dynabeads from nuclear extract of wild-type or homozygous mutant HEK293T cells treated with 0.5 mM H2O2 for 1 h; 1 h at 4°C in PBST; blotted for APE1; APE1 signal quantified relative to MUTYH and normalised to unedited cells
[4] = target: MUTYH L111P (c.248T > C) (human (endogenous in HEK293T)); assay: as above
[5] = target: MUTYH L296L (c.802C > T) (human (endogenous in HEK293T)); assay: as above
[6] = target: MUTYH W131* (c.309G > A) (human (endogenous in HEK293T)); assay: as above

Chain of MUTYH D271G (c.728A > G) (human (endogenous in HEK293T)) (Q9UIF7 whole entry, stated change not applied): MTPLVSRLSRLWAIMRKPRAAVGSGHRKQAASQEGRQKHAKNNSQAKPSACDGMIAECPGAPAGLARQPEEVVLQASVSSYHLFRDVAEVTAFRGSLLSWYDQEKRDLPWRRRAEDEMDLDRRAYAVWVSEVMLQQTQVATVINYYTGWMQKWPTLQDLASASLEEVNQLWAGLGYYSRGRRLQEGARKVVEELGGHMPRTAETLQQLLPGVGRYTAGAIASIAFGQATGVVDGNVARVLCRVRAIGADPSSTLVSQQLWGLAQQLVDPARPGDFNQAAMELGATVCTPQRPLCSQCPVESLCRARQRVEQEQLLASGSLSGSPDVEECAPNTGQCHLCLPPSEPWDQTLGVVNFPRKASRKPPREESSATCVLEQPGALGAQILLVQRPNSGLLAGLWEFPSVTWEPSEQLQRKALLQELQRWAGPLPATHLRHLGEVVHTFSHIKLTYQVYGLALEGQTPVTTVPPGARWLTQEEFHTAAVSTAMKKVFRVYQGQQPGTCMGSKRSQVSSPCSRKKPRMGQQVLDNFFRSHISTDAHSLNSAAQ
Chain of MUTYH L296L (c.802C > T) (human (endogenous in HEK293T)) (Q9UIF7 whole entry): as the sequence (Q9UIF7 whole entry, stated change not applied) above
Chain of MUTYH L111P (c.248T > C) (human (endogenous in HEK293T)) (Q9UIF7 whole entry, stated change not applied): as above

Substance: APE1 (apurinic/apyrimidinic endodeoxyribonuclease 1) (from UniProt P27695 1-318) (enzyme)
- 8-oxoG•[O] repair efficiency (average fold-change in MFI of EGFP+ cells compared to that of unedited HEK293T cells), homozygous D271G clones (fold of unedited HEK293T cells) [1]: 0.56
- 8-oxoG•[O] repair efficiency (average fold-change in MFI of EGFP+ cells compared to that of unedited HEK293T cells), homozygous W131* clones (fold of unedited HEK293T cells) [2]: 0.34
- APE1 signal relative to MUTYH in the MUTYH immunoprecipitate, normalised to wild type (relative to wild-type levels) [3]: 0.29
- APE1 signal relative to MUTYH in the MUTYH immunoprecipitate, normalised to wild type (relative to wild-type levels) [4]: 0.82
- APE1 signal relative to MUTYH in the MUTYH immunoprecipitate, normalised to wild type (relative to wild-type levels) [5]: 0.8
- APE1 signal relative to MUTYH in the MUTYH immunoprecipitate, normalised to wild type (relative to wild-type levels) [6]: 0.21

Reference: PMC11952967
